Like-named read-outs stand apart in the source and are kept apart here. Positions of bridges follow the written chain, without caps; N, C: chain ends. Non-standard residues stand in square brackets, D forms with d. Chains are numbered I, II in the order given. *: point of attachment. Dolaproine = CO[C@@H]([C@@H]1CCCN1)[C@@H](C)C(=O)O; Dil = CC[C@H](C)[C@H](NC)[C@@H](CC(=O)O)OC; X1 = C[C@@H](N*)[C@@H](O)c1ccccc1; NMeV = CN[C@H](C(=O)O)C(C)C; Mpa = O=C(O)CCS
Assays:
[1] = Construct Stability HPLC in Mouse Serum; assay type: in vitro ADME; conditions: 37° C., 48 h
Experimental: FIG. 8A, FIG. 8B, and FIG. 8C show Purity check and Chemical stability of pHLIP-MMAE conjugates. (FIG. 8A) and (FIG. 8B): HPLC traces of pHLIP(WT)-MMAE and pHLIP(D25E)-MMAE, respectively: Purified conjugates (upper panels), 10 μM of conjugate in cell media (middle panels) and after incubation in cell media for 2 h at pH 5.0 and 37° C. (lower panels). The small peak observed around 27 min in (FIG. 8B) upper panel corresponds to some residual free pHLIP (<15%), which is known to not be cytotoxic (FIG. 7). (FIG. 8C) HPLC traces of Alexa750-pHLIP(WT)-MMAE: Purified conjugate (upper panel), 10 μM Alexa 750-pHLIP(WT)-MMAE before (upper panel) and after 48 h incubation in mouse serum at 37° C. (lower panel). Purity checks and chemical stability runs were performed on different column and with different flow rate, explaining the difference in retention times and peak broadness (see Experimental Section). […]
Peptide solutions were incubated at either pH 7.4 or pH 5.0 (37° C. and 5% CO2) and 100 μL aliquots were monitored via RP-HPLC at various time points (Agilent Eclipse XDB-C18 […] 9.4×250 mm; flow rate 2 mL/min; phase A: water 0.01% TFA; phase B: acetonitrile 0.01% TFA; gradient 45 min from 95/5 A/B to 0/100 A/B). […] The stability of Alexa750-pHLIP(WT)-MMAE was determined in mouse serum by solubilizing the construct to incubating it at 37° C. and monitoring via RP-HPLC at specific time points.

[2] = for Trp fluorescence emission maxima: POPC liposomes; for insertion in lipid bilayers: acidic conditions
Experimental: State I corresponds to the peptides in an aqueous environment is shown in black, state II: peptides in the presence of lipid membranes at pH 7.4, shown in blue and state III: peptides in the presence of lipids at pH 5.0 is shown in red. [peptide]=7 μM and peptide-lipid ratio=1:300 with POPC liposomes.
Preparation of POPC Liposomes. Ten milligrams of POPC in chloroform were dried and then held under vacuum overnight. The dried lipid film was rehydrated with 1 ml of 5 mM sodium phosphate, pH 8.0, and mixed by vigorous vortex. The resulting multilamellar vesicle solution was freeze-thawed in liquid nitrogen for seven cycles and were extruded through a polycarbonate membrane with […] diameter pores using a mini extruder (Avanti Polar Lipids) to produce large unilamellar vesicles. Liposomes were used immediately following their preparation. Lipid concentration was checked using the Marshall's assay and the size distribution was verified by dynamic light scattering analysis performed at a scattering angle of 90° using an ALV/GSC-3 goniometer system equipped with ALV/ALV-7004 correlator (ALV-GmbH, Langen, Germany).
Sample preparation for Circular Dichroism and Tryptophan Fluorescence Measurements. Prior to CD or fluorescence measurements, lyophilized aliquots of pHLIP constructs were resuspended to 20 μM with 5 mM sodium phosphate, pH 8.0, and incubated for 1 hour at room temperature. This stock solution was diluted to a final concentration of 7 μM and, when appropriate, incubated with POPC liposomes at a 1:300 peptide-to-lipid molar ratio for 30 minutes at room temperature. Subsequently, samples were adjusted to the desired experimental pH values with the addition of aliquots of an HCl solution to elicit pH-dependent insertion. Samples were allowed to equilibrate at the desired pH for 30 minutes at room temperature before spectroscopic measurements.
Tryptophan Fluorescence Spectroscopy. All measurements were carried out using a Cary Eclipse Fluorescence Spectrophotometer (Varian), and performed at 25° C. with pHLIP construct concentrations equal to 7 μM. Samples were excited at 295 nm and the emission spectra were taken from 300 to 500 nm, with the slit widths for emission and excitation both set 5 nm.
Circular Dichroism Spectroscopy. Far-UV CD spectra of pHLIP constructs were recorded on Jasco J-815 CD spectrometer equipped with a Peltier thermal-controlled cuvette holder (Jasco, Inc.). All measurements were performed in 0.1 mm quartz cuvette at 25° C. with pHLIP constructs concentrations equal to 7 μM. CD intensities are expressed in mean residue molar ellipticity [θ] calculated from the following equation: […]

Row | Substance | stability in serum [1] | Trp fluorescence emission maxima ([2]; pH 5.0) [nm] | Trp fluorescence emission maxima ([2]; pH 7.4) [nm] | insertion in lipid bilayers [2]
1 | I: H-AAEQNPIYWARYADWLFTTPLLLLDLALLVDADEGTCG-OH / II: [Mpa][NMeV]V[Dil][Dolaproine]-X1 (disulfide I:37-II:1) [pHLIP(WT)-MMAE] | stable in serum | 334 | 348 | can insert in lipid bilayers under acidic conditions to form stable transmembrane α-helices
2 | I: H-AAEQNPIYWARYADWLFTTPLLLLELALLVDADEGTCG-NH2 / II: [Mpa][NMeV]V[Dil][Dolaproine]-X1 (disulfide I:37-II:1) [pHLIP(D25E)-MMAE] | – | 329 | 347 | can insert in lipid bilayers under acidic conditions to form stable transmembrane α-helices
